One molecule from patent US5077204A, “Yeast endopeptidase for basic amino-acid site cleavage, preparation and use” (Chiron Corporation, priority 1988, dated 1991) can be followed below.

The target of experiment [1] is T1, KEX2 endopeptidase (kex2[YEp24-pJ2B] membranes) (Saccharomyces cerevisiae, UniProt P13134).
T1 construct: not only includes the KEX2 gene, but also the necessary transcriptional and translational regulatory signals for expression in yeast; expressed in transfected cells; host or cells: S. cerevisiae XBH16-15A (MATalpha kex2-1) carrying YEp24-pJ2B
T1 sequence (P13134 114-814): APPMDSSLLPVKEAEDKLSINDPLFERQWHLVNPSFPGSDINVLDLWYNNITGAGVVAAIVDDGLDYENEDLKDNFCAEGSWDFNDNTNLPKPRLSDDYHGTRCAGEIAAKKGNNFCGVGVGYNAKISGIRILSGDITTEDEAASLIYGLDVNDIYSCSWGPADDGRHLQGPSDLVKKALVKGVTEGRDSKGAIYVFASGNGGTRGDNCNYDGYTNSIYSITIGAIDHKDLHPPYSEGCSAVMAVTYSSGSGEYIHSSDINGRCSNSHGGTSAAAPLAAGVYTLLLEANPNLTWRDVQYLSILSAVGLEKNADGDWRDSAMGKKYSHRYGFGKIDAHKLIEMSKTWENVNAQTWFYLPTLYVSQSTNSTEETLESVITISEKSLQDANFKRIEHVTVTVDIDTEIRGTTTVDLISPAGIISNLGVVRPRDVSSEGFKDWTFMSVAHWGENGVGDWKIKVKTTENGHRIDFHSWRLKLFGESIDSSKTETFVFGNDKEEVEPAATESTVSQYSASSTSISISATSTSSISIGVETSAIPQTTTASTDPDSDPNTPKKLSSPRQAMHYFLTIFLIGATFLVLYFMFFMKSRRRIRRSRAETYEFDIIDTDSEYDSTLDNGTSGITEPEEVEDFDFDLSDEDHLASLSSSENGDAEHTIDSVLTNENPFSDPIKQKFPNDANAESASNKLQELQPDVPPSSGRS
Briefly: Endopeptidase activity in membranes from kex2 cells carrying multicopy plasmid pJ2B (over-produced specific endopeptidase). The class given is biochemical, S. cerevisiae. The protocol:
Permeabilization of whole yeast cells with the non-ionic detergent Brij 58, preparation of crude membrane fractions, and measurement of protein concentration were conducted by the methods described previously (Julius et al., 1983, supra), incorporated herein by reference. To measure peptidase activity, samples of permeabilized cells or membrane material were added to a reaction mixture containing 0.1-0.5 mM fluorogenic peptide substrate (added from a 20 mM stock dissolved in DMSO) and 200 mM HEPES-Tris (pH 7.0), in a final volume of 0.4 ml. Following incubation for 30 min at 37° C., whole cells were removed by centrifugation in a microfuge (Eppendorf) and membrane material was removed by Ba(OH)2 -ZnSO4 precipitation. The amount of fluorescence formed in the supernatant solution was determined in a fluorescence spectrophotometer (Perkin-Elmer, Model MPF-44B), set either at an excitation wavelength of 335 nm and an emission wavelength of 410 nm (for measurement of β-naphthylamine) or at an excitation wavelength of 380 nm and an emission wavelength of 460 nm (for measurement of 7-amino-4-methyl-coumarin, AMC). To determine the number of moles of substrate hydrolyzed, the fluorescence yield of samples was compared to a standard curve prepared with known concentrations of authentic AMC dissolved in the same buffer.
Cells of strain XBH1615A that had been transformed with the plasmids
indicated, or that contained pJ2B in integrated form, were grown in SCUra
and membranes were prepared as described in the Experimental.
Endopeptidase activity was assayed as described in the Experimental. All
substrates tested were present at 0.1 mM.
Endopeptidase activity was assayed using Boc--GlnArgArg--MCA as the
substrate, as outlined in the Experimental. All inhibitors were added fro
a 0.1 M stock dissolved in dimethyl sulfoxide.

The test system of experiment [2] is human proinsulin (alpha-factor leader-proinsulin fusion). Put plainly: Processing of proinsulin in yeast transformed with KEX2 containing vectors. The class given is cell-based, yeast strains AB109 and AB103.1. The settings on record: yeast transformed with pYBCA5-KEX2 versus pYBCA5; cleavage between alpha-factor leader and proinsulin, B/C and C/A junctions. An excerpt:
Plasmids containing proinsulin and KEX2 genes (pYBCA5-KEX2 or pYBCA5-KEX4) or control plasmids with only proinsulin sequences (pYBCA5) or no insert (pCl/1) were used to transform kex2^- mutant yeast strain AB109 (Matα, kex2-1, ade2-1, his^-, leu2-3,112, trpl^-289, ura3-25 ura3-52, (KIL-k), cir° ) or KEX2^+ yeast strain AB103.1 (matα, pep4-3, leu2-3, leu2-112, ura3-52, his4-580, cir° ) following the procedure of Hinnen et al., Proc. Natl. Acad. Sci. USA (1978) 75:1929-1933. Transformants were grown in a low sulfate medium (LSM) containing 0.1 mM (NH4)2 SO4 until mid-exponential phase (OD660 nm 1-3), collected by centrifugation and resuspended in LSM containing 0.25 mCi of carrier free [ ^35 S]SO4^2- at an OD660 =2. After 10 min incubation, a 50-fold excess of (NH4)2 SO4 was added and cells were further incubated for 15-30 min. After centrifugation, proteins present in the cell free extract were precipitated with 12% trichloroacetic acid, 0.5 mg/ml deoxycholate. The precipitate was resuspended, reduced and alkylated and submitted to protein acrylamide gel electrophoresis (Laemmli, Nature (1970) 227:680). Gels were fixed, fluorographed, dried and exposed to Kodak XAR-5 film at -70° C.

B1: KEX2 endopeptidase: yeast endopeptidase, product of the KEX2 gene, cleaving on the carboxyl side of a pair of basic amino acids (protein, UniProt P13134 114-814, looked up)
Kexin: APPMDSSLLPVKEAEDKLSINDPLFERQWHLVNPSFPGSDINVLDLWYNNITGAGVVAAIVDDGLDYENEDLKDNFCAEGSWDFNDNTNLPKPRLSDDYHGTRCAGEIAAKKGNNFCGVGVGYNAKISGIRILSGDITTEDEAASLIYGLDVNDIYSCSWGPADDGRHLQGPSDLVKKALVKGVTEGRDSKGAIYVFASGNGGTRGDNCNYDGYTNSIYSITIGAIDHKDLHPPYSEGCSAVMAVTYSSGSGEYIHSSDINGRCSNSHGGTSAAAPLAAGVYTLLLEANPNLTWRDVQYLSILSAVGLEKNADGDWRDSAMGKKYSHRYGFGKIDAHKLIEMSKTWENVNAQTWFYLPTLYVSQSTNSTEETLESVITISEKSLQDANFKRIEHVTVTVDIDTEIRGTTTVDLISPAGIISNLGVVRPRDVSSEGFKDWTFMSVAHWGENGVGDWKIKVKTTENGHRIDFHSWRLKLFGESIDSSKTETFVFGNDKEEVEPAATESTVSQYSASSTSISISATSTSSISIGVETSAIPQTTTASTDPDSDPNTPKKLSSPRQAMHYFLTIFLIGATFLVLYFMFFMKSRRRIRRSRAETYEFDIIDTDSEYDSTLDNGTSGITEPEEVEDFDFDLSDEDHLASLSSSENGDAEHTIDSVLTNENPFSDPIKQKFPNDANAESASNKLQELQPDVPPSSGRS
Take B1: the pH optimum in experiment [1] is 7.0-7.5. The “Activity at pH 5.0” value in experiment [1] (pH 5.0) is reported as “little activity detected”. The “Activity at pH 8.5” value in experiment [1] (pH 8.5) was “about half-maximal activity”. Further, the “Processing of proinsulin (autoradiography of secreted insulin-related bands)” value in experiment [2] is “able to process proinsulin at specific cleavage sites”.
